Data from US20150005237A1, “PEPTIDIC INHIBITOR OF SIGNAL TRANSMISSION FROM G-ALPHA-S TO G-ALPHA-I-COUPLED RECEPTOR CASCADES” (UNIVERSITÄT INNSBRUCK, priority 2011, published 2015).

Target: T1, recombinant GST-Gαi3 (Rattus norvegicus, UniProt P08753)
T1 construct: A fusion protein was constructed consisting of full-length Gαi3 and gluthatione S-transferase (GST); made in house; host or cells: Escherichia coli BL21
Experiment: SPOT peptide dot blot overlay with recombinant GST-Gαi3
Type: binding
Settings: spotted 25 mers overlaid with GST-Gαi3 10 μg/ml
Description: FIG. 4 Dot blot analysis of conserved amino acids (core element of SEQ ID No. 1, 2, extended sequences SEQ ID No. 4 and 5) in the Reggai sequence. Spotted peptides containing the Reggai sequence (25 mers) of RIIβ (Reg) (SEQ ID No. 7), its mutant functional variant (SEQ ID No. 8) and non-functional peptides not containing the Reggai core element of SEQ ID No. 1 variant (SEQ ID No. 9 to 15) (exchanged amino acids are underlined) were overlaid with recombinant GST-Gαi3. The box indicates the Reggai sequence. Densitometric analysis of the average of two independent dot blot experiments is shown as bar graph. […] SEQ ID No. 9 to 15 in FIG. 4 (2nd to 7th and 9th sequence) are non-inventive comparative peptides.
Overlapping peptides either of the wild type PKA regulatory subunit RIIβ (accession number: NP_002727) or peptides containing substitutions of conserved amino acids in the Reggai sequence were SPOT-synthesized (Synthetic peptide arrays on membrane supports) on distinct coordinates of a cellulose membrane (shown in FIG. 1c; starting from the N-terminus of RegIIβ with amino acid 1-25 [coordinate A1], amino acid 6-30 [coordinate A2], etc.). […] Interactions were detected with rabbit anti-GST and secondary horseradish peroxidase antibodies by a procedure identical to immunoblotting (IB), (see Stefan et al., J. Am. Soc. Nephrol. 18, 199-212 (2007)). […]

T1 sequence (P08753 whole entry, the tested form may be a part): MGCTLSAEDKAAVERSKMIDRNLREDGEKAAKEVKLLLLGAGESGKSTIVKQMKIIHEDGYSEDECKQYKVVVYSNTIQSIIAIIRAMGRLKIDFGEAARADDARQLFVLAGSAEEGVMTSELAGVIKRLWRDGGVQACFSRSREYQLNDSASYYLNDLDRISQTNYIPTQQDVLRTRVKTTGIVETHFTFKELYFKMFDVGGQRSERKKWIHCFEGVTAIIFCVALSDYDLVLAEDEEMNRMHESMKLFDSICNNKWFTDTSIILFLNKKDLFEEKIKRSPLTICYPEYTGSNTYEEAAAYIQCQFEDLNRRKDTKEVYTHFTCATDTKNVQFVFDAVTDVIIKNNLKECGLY

binding of spotted peptide to recombinant GST-Gαi3 (dot blot): functional
Sequence: QGASADSFFIVESGE (listed as Homo sapiens) [SEQ ID No. 8]
